Data on 47 sequences can be found in the NTF2 design screens of Basanta et al. (2020).

The data set is described as follows: protease stability score; higher = more stable; yeast display proteolysis, trypsin and chymotrypsin.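 Further: log10 excess protease needed over predicted unfolded state with 0 meaning unfolded.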
As to “DHEDKERASQAIEAWNTGDPREFEKQFDPNARVHVGDRHIHGREQFEDEMKRHKDESRYEISLRNVTVDNGRIKLDVVLSVDENGRPETQHLKIDLELHNGRVVSMQFNHKK”, the protease stability score is -0.209. For the sequence “DHEDLVKRFIETMKEIYHTGNFRELANLADEDVQIHVGDKTVTGREHLRKEQETTERHADHATMRVDEVEVDGDKARVVFTVTIQVNGEKRSDRLVVEFRVHNGQLRIKSMRQQ”, the protease stability score worked out at 1.05. On to “DHEDMEKLAKDLNKAIEQGDPDRMRDMADENVDAKIGDKVFHGDENVRKMIKSIRDHADHLRVKDWRVKGEKIVIDVHVNHNGKSAKLDLKAQAHNGTFTTLKIDPQFQRSMES”, for which the protease stability score was -0.234. For “DHEDRAKDMLRRYEEALKSGNPDEARKLADEDVNFNIGDKRYRGRDDLATLVKQIRDSADHISITLETFTVQGNTITMDVSVVVDVNGKHISRRYNIIAQVDNGTLKLKSVQEH”, the protease stability score is -0.015.

In turn, “DHEDRELAKEWEKALHSGDRDQVHELMDPNASVRIGDKVFTGREEVSKHLKKIKDEMRIHIHSVHLEVQNGEVDNKNDLVADVNGVPVRVTVVVRITAQNGKMKELDMRFDPRQKEQMDR” showed a protease stability score of 0.093. Take “DHEEKAKKFFDDLLRAVKHNDETQLERLFDKNVRFNVGEHNFRGREEFVKMVRTMVEQVDHVTATIVSIETNGDKVNLVAQWDMSHNGNSKRIRVLVVLDDNNGRVVAREMSEK”: the protease stability score came out at 2.2. With “DHEELEVVKEWFDAIQKGDPKTIQELADKDAEFQIGDKTVRGREHLVETVERRKKHMEFQIRIDRMDVHGDKAVIDVTMSNKHNGQPSQDRYNVRVELHNGKIQNVDQSKRS”, the protease stability score is -0.033. Then “DHEEMEKIAEEIIDILRTNDPDQMERLADENVRVRIGDKEVHGRESVSHAAQQLHDRVDHFDLKSWRRNGDKFQFEFVEHFNGQSRNVQVEMRFENGKIRHIVYTSR”, with 0.226; and “DHEEQMEKFIKTLKKLMKNNDWETWASLADPNAEARYGDSEYHGREKIVTHMRKLQEHVDHADLKFRSVSLRNGEVTMRISFHVKVNGTDQSHEAKLVLEIDNGRAVIKKMVLD”, with 0.795.

For the sequence “DHEESKDIAEKAVKAIETGDPDKFVSNMDKDASARIGDKTYHGRENLRKAMEDFRNQVDHLRVQSYKVSGNTQKLDMRADFNGRTRVITVVMQMENGRVSFIRVHIE”, the protease stability score is -0.359. “DHEETFRKLLHDLDEAMRRGDTKRIQDLADENVQLEVGDKTIHGREEFAKFWMDLQKRVDHLELHVEHIHVSGDRIRAKIVLVFHHNGQTRTRSAQVVLVQENGRNVFTKIQFN” returned a protease stability score of 1.17. As to “DHEEVHKLAKKLAEAVVNGNEDRIRKFLKPDVEYKNIDEEYQGKQVAEVIVKTIKTKGVRLKVEEVKVEGDTVEAQYVFQVNGTKVTAHVRAEAKGGRVDKWQVHISDTAKKLRKEG”, the protease stability score was determined as 1.15. For “DHEEVKEFNKTLIKILETNDSKKLHELMDPNARIQIGDKDVSGRHNIHKLAEENKRRVDHFRVSRIDYHNGKVRADFTYVVNGQKHRVDMDIDITNGKIKRIIYHQR”, the protease stability score is 0.011.

Turning to “DHEEVRQYEDAVEAEETGDKEKLQRYMDPNVKFHVGDKTLHGREDVARKQKEDRERIRIRYKSMDIKVRGDKVDFKMSFVVNHNGRPQRETRTFTIDLHNGTFKHADWKESG”, the protease stability score is -0.014. In turn, “DHEFAKDAKEVLEENDFEREKQLFDKDASAHIGNTTYHGHEHVQTAIDIRKKRIDHREFHSITIHGDKVDVDLIVQFNGRKIRFDLTIQVHNGRVKEIKFQATNPSQERQLDEIMS” returned a protease stability score of 1.12. Then “DHEIRHFAEQVVRVLNTGDEEEIEKLFDPNARITVGDKSYHGMDDYARKVKQTRDEMRFTIDVKDLKVSGDSVSMRAHVVHDHNGTPQKDTEQREFRVQGDRVKHMDVKSDG”, with -0.395; and “DHEKNKQHVDQFNEILKNGNPDEANKLADKDVEIEVGDKRYHGHEDFRKYQEEIAEQADHVKVTEVEVDGNKANVDVVLRINGKNLRRTFLLQIHNGRLKRLSFDPDQWDKARG”, with 0.91. Take “DHELEELAKRFLEAVLTGDEDQLRRNMDPNVKVDVGDKTVKGREEAAREIHETVHRSRIHVNHVDFRLNNGRETMRMDVVVDHNGRPQKDTWKMNQDVQGDKVKNINFRTDG”: the protease stability score is -0.353. Then “DHELENLVEKIMSALTRNNPEDIRSLFDPNARFNIGDKTWNGMDRYITELKKEVDEWDMSVELHSVDIQGNKASAHVEQTAHHDGEPDSFEYTMKLDFHNGKARRQRVNSRK”, with -0.248. As for “DHELVEQLHRFWTAVDENDPDKLKENADPNAHFVIGDKTYRGREDFARTIERELDTMEMRFDTMTVTIHNGRLDAKFRYVVRHNGNPQQHKVDAKAEMSNGKIQRLNMQKRP”, the protease stability score was -0.197. With “DHENKKRVEEFLKALERNDPERLNHLMDPNVNIIVGDQRFHGREDAARNMAHEQKEQRFEVEDYRISVHGDDVRVEMIVQAEINGRPFRFTLIVYARIHDGRIQTIEFRIDEDEKRRMDQ”, the protease stability score stood at 0.895. With “DHEQLKNLKELLEAVQTGDEDQVKELMDPNAKFEYGNKSFHGRESMESYLKKLENEARVTVRSVTVRVSNGTISADVHLIFEVNGQPITVDAKFEAELHNGRVKHLYVRMPEETMKEIQG”, the protease stability score was -0.312. On to “DHEREAKHFVDDWVRALRTGDSKTIEELMDPNVTLRVGDQKLHGRSQNSDQVRRWKERVDTIDVKVRSINKTGDHMRVHVDVVMDINGEKDNKELVINFDKHNGRLIVKHASYG”, for which the protease stability score is -0.113. With “DHERILQELLDRAVKMLNTGNEEHARKLAPPHARMVVGDKTIHGMENIAHEWQKVQDRVDHVEARVHSMSVDGDKFVVIVEVTLDINGRKQTQVVTFIAVKNNGQVYVKQINIS”, the protease stability score is -0.162. “DHERLKEFIKIQQENNPDQLRNQMDPNVKARVGDKEFKGREQVVKWLKRIMDQADHIHYDDLKSQGNSVTINAVVEVNGKSFQYNMVVEFHNGRIREIKVEVRNHRVKEILERIEG” displayed a protease stability score of 1.62.

For “DHERLRKLAKDFVKILKHGDPDRMRELVDKDVRVQIGDKEVHGREKVDEMVENIRHRADHIDFTSFHASNGRVTVDVVVNVDGKNTRVTWRIVMSNGRVKMIQVTDG”, the protease stability score worked out at 1.82. As for “DHERVKDHATDLAKILRQNNERELKKLADKDVHFQIGDKTYHGREKFEEWVHELINTVDHIRITDFDVDGDRVRIDADFDINGKTVRVVIVVKLKNGKIKSQKVQFRDKDLQRKFNS”, the figure is -0.152; as for “DHETHMEKFFEDQQKIRNKGDEDKVRNLFDPNARATYGDKTYQGREQIDKFENDVLRRVDHVNVQLRNVRVHNGRADFDARVVFKVNGRHERNHIRITVEINNGRIVIQSVHYG”, 0.141. On to “DHETQNDLATEIVRVYKHGNPDDWSKLVDPNARVVYGDKEIHGREDAMSFMKKLRNQADSIKVKDYKVKNGRVDVVVIIVVNGRHATLQFTIQFHNGKATDVKFDPKQWHELQK”, for which the protease stability score stood at 1.28. As to “DHEVAKTMMEEWQKALENGDDKKLKELYDPDGEWEADDEQDQGTEVIEKLMEKVKKQGLKFQVRKAKVEGDKFTVVYDLHVGNKTATFEVEVHVEGGRIKKVKAKADEEAKKLITEG”, the protease stability score is 1.98.

Take “DHEVHKLFDDFLHAEETGNEEQLTELVDENAQIQVGDKEVHGRDHINKMHADLRRTMDLKLKDYKVNNNGNNVDVDMKYINEDNGKPSKVRMRAIYTFQNGRIKNVHQNRDQ”: the protease stability score was -0.366.

For the sequence “DHHARTQAEHLLEALRNGNEDQLMKLIDPNARFRYGDKEVHGSEQFREQVHTLKREIRMDVKEYRFTVEGNRLVVKVTAILDTNGKPDTRDVDNHAIVHNGKIKQFTVDNKS”, the protease stability score was -0.134. For the sequence “DHHDRKLFKHLITALRDGDEDKVKKNVDPNVKIDIGDTTWNGREQWAKDVREKREEMRVDIKLKRLTASNGRVTAKLRVRNKHDGRPHQHEFTVEFRRSNGRWKEIHVDDDK”, the protease stability score is -0.008. As for “DHHHARELLTRVIRALITGDEKKVADQIDPNAEFQYGDKTFHGRDQVRRFVKEWKKHVDHVELKTYDARGDKAKAIFVVDHNGHKKQVVLQLKVENGRVKSIRITDG”, the figure is 1.74; as for “DHKAVEMVEQMWKNLNEGDFKKFTRLIDKDVKYVYGDRRVEGREELVNRFHRKMREMRFQIVRMSLTDHGDKVVVNYTVQFNKNGRPDRKVQRLLVKVENGTIKELRVQEHQ”, 1.62; as for “DHKDQSKMVKDLNRVMQHGDSKQMRSMVDENAEVQYGDNQVHGRDQIREMEKRIRRRVDKVKFDSVDVEGNKVRIQYVVNVNGQNIEQVLHVTFKNGKIKNQEYRVRDPRLEKQFKS”, 0.237. With “DHKEARDVAQTMMHLLKHGDFEQIVRNADPNAHFVVGDKEYHGRDNLRKVLKRLHDQVDHISFRTYKVDEDTAKLDATVQINGRNYRMDVLVHFHNGRIKDLNIKVTDEDTQREADK”, the protease stability score was found to be 2.08. “DHKEETKKKDEARRVLETNDPRKKLKLMDPNARANVGDKRYHGREELKRRADEERKRVDHAEVKRVEANGDHIIVDFVFVVNGKTKRNSLNINMHNGRVKEVNVESR”: the protease stability score was -0.143. “DHKEHAEKFAQQLDEAHKKNDPRQFLRLMDKDVRVSVGDKTVHGKENIRKQLEDLTKQADSIEFKVKSIRVTGDKVRLEFEVVYRHNGRHSRQTVVMYLKLHNGRAVIKSVQVK” had a protease stability score of 0.159. In the case of “DHKELKKYLEQVEKNDFDKLKKNVDEDARVNYGNKTWHGREQVQKYWDDLKKRIDHFDVTHMTVKGDKLHYIVRMNVNGQNFEHKVVIEIQNGKIKQVDARYRDEKQKEKLEKVAD”, the protease stability score was 0.868. As to “DHKHLQEQARRLVDALVTGDPEEAANLADPNARARIGDKTIHGREQFRNAMQRFSNQADHVQVDHFTVQGDKVQVKMSINVNGQSFDVVMVARMDNGHIRHIRFDPDQIRQVQG”, the protease stability score was found to be 0.052. Consider “DHKLHHQLHRLIKALQTGDPDKIRELVDPNVEFVVGEKRYKGREDYVTDFKERLDHIRLDNDVRDVEVHGNKMRANIQTEVQDDGQPRTYQVRLDASAHNGKVKSLKVDKKP”, for which the protease stability score is -0.059. Consider “DHKQEATKNLKKFEDVMKTNDPEKAKNLADENVRVQVGDKTVHGKEKMVSTMLEEMRKVDHFSVHLQEVSFHGDKLNLSYEFVLNQNGKERKDVRVFHAANHNGRFLVEELHQG”, for which the protease stability score was -0.322. Regarding “DHNDHARRLFEQWVQAIEHNDPDQIRKNLPPNVKVTIGDKTISGRENVVRTVKRELHRVDHIRIQLDHVEVQGDKIVLRANVRQDHNGQNRHFTLRLVANTFNGREQFIDIQLN”, the protease stability score is -0.121.

Sequence “DHQASEKLSQLWKALNTGNPEQFSKNADPHVRHHVGDTSIQGREQFNEQIKREQKEMRVQIQVQSIHVRGDKIRVRAVYTFHINGQPRKDTFVAKFVVKNGRIKKASIRIDPRKVKERNS” displayed a protease stability score of 0.11. In the case of “DHQDARKVRKNFEDNNFESFKSMFDENAEVRVGDKELHGKENIRDQIRKEKEQIDHVQYRSFHVQGEKVDLKYEFQVNGRHIDVRASAELKNGRIKTHSVEVTTEEDKKLLKEVLQ”, the protease stability score is -0.271. For “DHQELAEKWFRTFVTNQERGDEESLVKMADKDVRLHIGDKTIHGREQFHHWIQELRRRVDHQSMTVRHIDVQGDKIRIDAEAVFNVNGRNDKFKIDIEAEIQGDKVVLKRIIFN”, the protease stability score turned out to be 1.63.
